± gives the uncertainty stated by the source.
Test: self-splicing fitness, log relative to wild type (ln ratio); higher = more splicing; Tetrahymena group I intron in knt gene, E. coli kanamycin selection, DiMSum; sequences stand for … in CUCUCU…GGAGGGAAAAGUUAUCAGGCAUGCACCUGGUAGCUAGUCUUUAAACCAAUAGAUUGCAUCGGUUUAAAAGGCAAGACCGUCAAAUUGCGGGAAAGGGGUCAACAGCCGUUCAGUACCAAGUCUCAGGGGAAACUUUGAGAUGGCCUUGCAAAGGGUAUGGUAAUAAGCUGACGGACAUGGUCCUAACCACGCAGCCAAGUCCUAAGUCAACAGAUCUUCUGUUGAUAUGGAUGCAGUUCACAGACUAAAUGUCGGUCGGGGAAGAUGUAUUCUUCUCAUAAGAUAUAGUCGGACCUCUCCUUAAUGGGAGCUAGCGGAUGAAGUGAUGCAACACUGGAGCCGCUGGGAACUAAUUUGUAUGCGAAAGUAUAUUGAUUAGUUUUGGAGUACUCGUGGUCG
Summary of the method: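 Library with all eight P1ex-region intron nucleotides randomised, intron inside the knt kanamycin-resistance gene on pET-22b(+), in E. coli BL21(DE3). Cells grew overnight at 37°C or 30°C on LB agar with or without 25 μg/mL kanamycin (plus 100 μg/mL carbenicillin, 50 μM IPTG, 0.2% rhamnose), in six replicate transformations. Pooled colonies were amplicon-sequenced on Illumina HiSeq 2500. DiMSum fitness is the error-weighted combination of wild-type-normalised replicate fold changes, kanamycin versus none.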

| Sequence | self-splicing fitness (ln) (30 °C) | self-splicing fitness (ln) (37 °C) |
| --- | --- | --- |
| CUCAAGCAAUAUUACGUUAG | -2.26 ± 0.062 | -1.47 ± 0.075 |
| CUCAAGCAAUAUUACGUUAU | -3.81 ± 0.15 | -3.39 ± 0.2 |
| CUCAAGCAAUAUUACGUUCU | -3.9 ± 0.19 | -2.68 ± 0.17 |
| CUCAAGCAAUAUUACGUUUA | -3.93 ± 0.24 | -2.65 ± 0.16 |
| CUCCAGCAAUAUUACGAAAU | -2.83 ± 0.19 | -1.75 ± 0.31 |
| CUCCAGCAAUAUUACGAAGG | -3.5 ± 0.32 | -2.13 ± 0.23 |
| CUCCAGCAAUAUUACGACAC | -2.74 ± 0.33 | -1.12 ± 0.34 |
| CUCCAGCAAUAUUACGAUCU | -4.21 ± 0.27 | -1.16 ± 0.12 |
| CUCCAGCAAUAUUACGAUUA | -2.63 ± 0.32 | -2.37 ± 0.37 |
| CUCCAGCAAUAUUACGCAGA | -3.72 ± 0.35 | -1.94 ± 0.2 |
| CUCCAGCAAUAUUACGCUAG | -3.91 ± 0.17 | -2.7 ± 0.2 |
| CUCCAGCAAUAUUACGGAGC | -1.83 ± 0.12 | -2.69 ± 0.2 |
| CUCCAGCAAUAUUACGGAGU | -4.09 ± 0.31 | -1.28 ± 0.19 |
| CUCCAGCAAUAUUACGGAUC | -1.86 ± 0.099 | -1.47 ± 0.14 |
| CUCCAGCAAUAUUACGGAUU | -2.59 ± 0.26 | -2.07 ± 0.18 |
| CUCCAGCAAUAUUACGGCCA | -2.94 ± 0.25 |  |
| CUCCAGCAAUAUUACGGCUU | -1.73 ± 0.19 | -2.76 ± 0.31 |
| CUCCAGCAAUAUUACGGGAU | -2.92 ± 0.11 | -1.18 ± 0.1 |
| CUCCAGCAAUAUUACGGUUU | -2.02 ± 0.11 | -2.39 ± 0.19 |
| CUCCAGCAAUAUUACGUAAU | -4.88 ± 0.23 | -3.21 ± 0.2 |
| CUCCAGCAAUAUUACGUCAA | -3.08 ± 0.19 | -3.24 ± 0.23 |
| CUCCAGCAAUAUUACGUCGA | -4.42 ± 0.27 | -2.73 ± 0.17 |
| CUCCAGCAAUAUUACGUGUA | -2.95 ± 0.14 | -2.82 ± 0.19 |
| CUCCAGCAAUAUUACGUUAC | -3.6 ± 0.18 | -2.42 ± 0.2 |
| CUCCAGCAAUAUUACGUUCA | -3.32 ± 0.29 | -2.85 ± 0.25 |
| CUCCAGCAAUAUUACGUUGU | -4.22 ± 0.15 | -3.49 ± 0.21 |
| CUCGAGCAAUAUUACGAACA | -1.56 ± 0.41 | -2.03 ± 0.49 |

| Sequence | self-splicing fitness (ln) (30 °C) | self-splicing fitness (ln) (37 °C) |
| --- | --- | --- |
| CUCGAGCAAUAUUACGACAC | -2.69 ± 0.27 |  |
| CUCGAGCAAUAUUACGACAU | -3.527 ± 0.027 | -2.07 ± 0.038 |
| CUCGAGCAAUAUUACGAUAG | -1.11 ± 0.15 | -0.333 ± 0.15 |
| CUCGAGCAAUAUUACGAUCG |  | -1.71 ± 0.28 |
| CUCGAGCAAUAUUACGCAAA | -2.55 ± 0.33 | -3.66 ± 0.46 |
| CUCGAGCAAUAUUACGCAGA | -2.04 ± 0.35 | -0.967 ± 0.17 |
| CUCGAGCAAUAUUACGCCUU | -2.45 ± 0.15 | -2.72 ± 0.37 |
| CUCGAGCAAUAUUACGCGAA | -3.3 ± 0.34 | -2.41 ± 0.37 |
| CUCGAGCAAUAUUACGCGGA | -3.05 ± 0.24 | -2.63 ± 0.22 |
| CUCGAGCAAUAUUACGCGUA | -2.97 ± 0.48 | -1.59 ± 0.23 |
| CUCGAGCAAUAUUACGCUGC | -3.61 ± 0.42 |  |
| CUCGAGCAAUAUUACGGAGU | -3.07 ± 0.22 | -2.57 ± 0.31 |
| CUCGAGCAAUAUUACGGGUU | -3.47 ± 0.14 | -3.05 ± 0.16 |
| CUCGAGCAAUAUUACGUACU | -2.68 ± 0.2 | -3.11 ± 0.33 |
| CUCGAGCAAUAUUACGUAGA | -3.34 ± 0.21 | -1.64 ± 0.14 |
| CUCGAGCAAUAUUACGUCGC | -4.4 ± 0.36 | -1.12 ± 0.19 |
| CUCGAGCAAUAUUACGUCGU | -1.77 ± 0.26 | -1.88 ± 0.37 |
| CUCGAGCAAUAUUACGUCUC | -2.55 ± 0.23 | -2.5 ± 0.39 |
| CUCGAGCAAUAUUACGUGGG | -3.08 ± 0.14 | -2.88 ± 0.2 |
| CUCGAGCAAUAUUACGUGGU | -3.41 ± 0.16 | -2.49 ± 0.18 |
| CUCGAGCAAUAUUACGUUAG | -3.81 ± 0.21 | -1.37 ± 0.14 |
| CUCGAGCAAUAUUACGUUAU | -3.99 ± 0.36 | -2.72 ± 0.3 |
| CUCGAGCAAUAUUACGUUGU | -4.17 ± 0.18 | -2.07 ± 0.14 |
| CUCUAGCAAUAUUACGAAUU | -3.81 ± 0.29 | -3.19 ± 0.4 |
| CUCUAGCAAUAUUACGACUA |  | -1.71 ± 0.28 |
| CUCUAGCAAUAUUACGCCCA | -2.25 ± 0.4 |  |
| CUCUAGCAAUAUUACGCCUG | -2.33 ± 0.36 |  |

| Sequence | self-splicing fitness (ln) (30 °C) | self-splicing fitness (ln) (37 °C) |
| --- | --- | --- |
| CUCUAGCAAUAUUACGCGGA | -3.1 ± 0.4 | -1.9 ± 0.34 |
| CUCUAGCAAUAUUACGCGUC | -3.9 ± 0.47 | -2.85 ± 0.24 |
| CUCUAGCAAUAUUACGCUAC | -3.65 ± 0.47 | -1.14 ± 0.37 |
| CUCUAGCAAUAUUACGCUGU | -3.07 ± 0.31 | -3.24 ± 0.29 |
| CUCUAGCAAUAUUACGGAAU | -3.43 ± 0.26 | -3.25 ± 0.3 |
| CUCUAGCAAUAUUACGGGUG | -1.57 ± 0.092 | -0.947 ± 0.1 |
| CUCUAGCAAUAUUACGGGUU | -4.28 ± 0.32 | -3.31 ± 0.24 |
| CUCUAGCAAUAUUACGGUCC | -2.84 ± 0.33 | -2.53 ± 0.36 |
| CUCUAGCAAUAUUACGGUCG | -1.51 ± 0.14 | -0.933 ± 0.14 |
| CUCUAGCAAUAUUACGGUGC | -2.62 ± 0.21 |  |
| CUCUAGCAAUAUUACGUCCA |  | -2.12 ± 0.4 |
| CUCUAGCAAUAUUACGUGGA | -3.43 ± 0.25 | -2.17 ± 0.19 |
| CUCUAGCAAUAUUACGUGUC | -3.45 ± 0.21 | -3.91 ± 0.31 |
| CUCUAGCAAUAUUACGUUAA | -2.75 ± 0.27 |  |
| CUCUAGCAAUAUUACGUUUA | -3.48 ± 0.25 | -3.07 ± 0.29 |
| CUGAAGCAAUAUUACGAACA | -2.82 ± 0.41 | -2.11 ± 0.23 |
| CUGAAGCAAUAUUACGAGAC | -0.346 ± 0.11 | 0.35 ± 0.15 |
| CUGAAGCAAUAUUACGAGCC | -3.13 ± 0.31 |  |
| CUGAAGCAAUAUUACGAGUU | -4 ± 0.23 | -3.47 ± 0.19 |
| CUGAAGCAAUAUUACGAUAG | -0.213 ± 0.082 | 0.563 ± 0.11 |
| CUGAAGCAAUAUUACGCACG | -0.222 ± 0.072 | -1.34 ± 0.08 |
| CUGAAGCAAUAUUACGCCAU | -3.41 ± 0.31 | -2.52 ± 0.36 |
| CUGAAGCAAUAUUACGCCUC | -3.61 ± 0.44 |  |
| CUGAAGCAAUAUUACGCGCA | -3.11 ± 0.23 | -2.19 ± 0.36 |
| CUGAAGCAAUAUUACGCGGG | -1.65 ± 0.17 | -1.83 ± 0.19 |
| CUGAAGCAAUAUUACGCUGU | -3.65 ± 0.2 | -2.75 ± 0.24 |

From the supplement of paper PMC7877785
